Test results published in IntAct's records for PubMed 26040717.

B1: Autophagy-related protein 39 (Saccharomyces cerevisiae), Q06159 (parent)
chain: MSEEDDHWNLVRLRRLRKGREGEEQSSKSEISLDSLHESSFAGEDDEDFDADVLSNTSSEESAQMNRIYDFRTSNEFSNAGVNIDQTGVPTISESFDTLSGSNVGGTVLPSMEGSKLKDSTIRNSSTLSDHIIDKSEGKSAKLKMWHVIMLSSLLSMTFSYLALEYSLTGDVLAGFKSQQSLRNNERKLLYGNIDFVDKKSYDSSSDSLSQWAPSGKYYVDFDNHIAYPLKDDDLMGWRRYKTDLVILWYTTKARMKDGWHKRINKINGGRIKLHLFLKNSFKSAQESLRVLHKEQKRRWKRLFVLLHNKYRQFSPHIKRYFDHSCQKAKQCWSGSRLQLRKLRFKSMKPFRVFQFKVRKDTNWFVKQLKRFGLKLQHSRMYKAMSECRKKNYFKCKH
partner: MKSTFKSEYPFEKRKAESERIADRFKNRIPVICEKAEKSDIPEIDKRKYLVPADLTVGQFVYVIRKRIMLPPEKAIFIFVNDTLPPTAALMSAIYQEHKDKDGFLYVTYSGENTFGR
B2: Autophagy-related protein 40 (Saccharomyces cerevisiae), Q99325 (parent)
chain: MFNLILWPLFLLTSVAIPLQLTLEVVYLTSSVDFSKASAAKTATSLGQSPVVITIYKSLLKYWSLYEFIHFIYLYTPIDAFLNFLPFTSLLMSFGSICLTRELVYDFIAFMESQNKLTGFLNKITEPNFNSYLLFSSIYNIWFADDTNDKFLFGKLTQILISVTKRYEFPRTFYLAKVSDFLQNLILTRLRPFVTEQPQGDKNRYQNGDRESTKNGAAYQKSSQQSSSFEQNFTSTEFPNDYDFMEDILDETTELD
partner: B1 partner
B3: Autophagy-related protein 8 (Saccharomyces cerevisiae), P38182 (parent)
chain: B1 partner
partner: B1 chain
B4: Autophagy-related protein 8 (Saccharomyces cerevisiae), P38182 (parent)
chain: B1 partner
partner: B2 chain
B5: Autophagy-related protein 39 (Saccharomyces cerevisiae), Q06159 (parent)
chain: B1 chain
partner: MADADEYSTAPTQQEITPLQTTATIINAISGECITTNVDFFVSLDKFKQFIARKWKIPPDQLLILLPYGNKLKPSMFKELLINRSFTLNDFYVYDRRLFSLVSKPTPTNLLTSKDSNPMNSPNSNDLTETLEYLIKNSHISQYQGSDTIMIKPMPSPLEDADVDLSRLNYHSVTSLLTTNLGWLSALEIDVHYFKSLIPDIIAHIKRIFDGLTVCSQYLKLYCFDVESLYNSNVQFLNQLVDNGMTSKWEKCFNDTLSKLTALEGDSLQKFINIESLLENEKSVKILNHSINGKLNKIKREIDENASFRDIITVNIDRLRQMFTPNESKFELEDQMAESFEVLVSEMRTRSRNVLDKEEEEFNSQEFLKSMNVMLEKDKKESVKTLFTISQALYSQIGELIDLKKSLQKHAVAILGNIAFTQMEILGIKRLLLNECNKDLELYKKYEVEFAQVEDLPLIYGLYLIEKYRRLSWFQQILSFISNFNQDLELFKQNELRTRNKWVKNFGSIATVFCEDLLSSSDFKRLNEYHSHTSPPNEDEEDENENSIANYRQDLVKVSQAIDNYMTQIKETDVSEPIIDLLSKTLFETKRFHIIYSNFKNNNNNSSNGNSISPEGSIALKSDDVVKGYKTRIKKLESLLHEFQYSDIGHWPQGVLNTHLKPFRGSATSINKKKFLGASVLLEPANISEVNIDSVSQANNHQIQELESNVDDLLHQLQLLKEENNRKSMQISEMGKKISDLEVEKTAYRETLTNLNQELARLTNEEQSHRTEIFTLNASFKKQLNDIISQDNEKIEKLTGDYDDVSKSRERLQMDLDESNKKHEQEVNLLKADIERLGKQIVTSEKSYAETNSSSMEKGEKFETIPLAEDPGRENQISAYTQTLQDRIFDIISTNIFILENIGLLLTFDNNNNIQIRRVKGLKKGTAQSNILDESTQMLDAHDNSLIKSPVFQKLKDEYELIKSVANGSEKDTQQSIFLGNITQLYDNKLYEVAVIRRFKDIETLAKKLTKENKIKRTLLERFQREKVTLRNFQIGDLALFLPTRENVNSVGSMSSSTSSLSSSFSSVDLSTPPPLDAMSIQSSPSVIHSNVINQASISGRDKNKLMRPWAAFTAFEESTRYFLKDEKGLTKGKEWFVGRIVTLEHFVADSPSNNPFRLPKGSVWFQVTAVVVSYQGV

Variants of: B1
Settings: with atg8_yeast ATG8, P38182

Variant | effect of a mutation on the interaction
MSEEDDHANLARLRRLRKGREGEEQSSKSEISLDSLHESSFAGEDDEDFDADVLSNTSSEESAQMNRIYDFRTSNEFSNAGVNIDQTGVPTISESFDTLSGSNVGGTVLPSMEGSKLKDSTIRNSSTLSDHIIDKSEGKSAKLKMWHVIMLSSLLSMTFSYLALEYSLTGDVLAGFKSQQSLRNNERKLLYGNIDFVDKKSYDSSSDSLSQWAPSGKYYVDFDNHIAYPLKDDDLMGWRRYKTDLVILWYTTKARMKDGWHKRINKINGGRIKLHLFLKNSFKSAQESLRVLHKEQKRRWKRLFVLLHNKYRQFSPHIKRYFDHSCQKAKQCWSGSRLQLRKLRFKSMKPFRVFQFKVRKDTNWFVKQLKRFGLKLQHSRMYKAMSECRKKNYFKCKH [W8A;V11A] | disrupting interaction strength

Variants of: B2
Settings: with atg8_yeast ATG8, P38182

Variant | effect of a mutation on the interaction
MFNLILWPLFLLTSVAIPLQLTLEVVYLTSSVDFSKASAAKTATSLGQSPVVITIYKSLLKYWSLYEFIHFIYLYTPIDAFLNFLPFTSLLMSFGSICLTRELVYDFIAFMESQNKLTGFLNKITEPNFNSYLLFSSIYNIWFADDTNDKFLFGKLTQILISVTKRYEFPRTFYLAKVSDFLQNLILTRLRPFVTEQPQGDKNRYQNGDRESTKNGAAYQKSSQQSSSFEQNFTSTEFPNDADFAEDILDETTELD [Y242A;M245A] | disrupting interaction strength

Variants of: B3
Settings: with atg39_yeast ATG39, Q06159

Variant | effect of a mutation on the interaction
MKSTFKSEYPFEKRKAESERIADRFKNRIPVICEKAEKSDIPEIDKRKYLVAADLTVGQFVYVIRKAIMLPPEKAIFIFVNDTLPPTAALMSAIYQEHKDKDGFLYVTYSGENTFGR | disrupting interaction strength

Variants of: B3
Settings: with atg39_yeast ATG39, Q06159
Remark: another data set of the same source

Variant | effect of a mutation on the interaction
MKSTFKSEYPFEKRKAESERIADRFKNRIPVICEKAEKSDIPEIDKRKYLVAADLTVGQFVYVIRKAIMLPPEKAIFIFVNDTLPPTAALMSAIYQEHKDKDGFLYVTYSGENTFGR | decreasing interaction strength

Variants of: B4
Settings: with atg40_yeast ATG40, Q99325

Variant | effect of a mutation on the interaction
MKSTFKSEYPFEKRKAESERIADRFKNRIPVICEKAEKSDIPEIDKRKYLVAADLTVGQFVYVIRKAIMLPPEKAIFIFVNDTLPPTAALMSAIYQEHKDKDGFLYVTYSGENTFGR | disrupting interaction strength

Variants of: B5
Settings: with atg11_yeast ATG11, Q12527

Variant | effect of a mutation on the interaction
MSEEDDHWNLVRLRRLRKGREGEEQSSKSEISLDSLHESSFAGEDDEDFDAAAAAAAAAEESAQMNRIYDFRTSNEFSNAGVNIDQTGVPTISESFDTLSGSNVGGTVLPSMEGSKLKDSTIRNSSTLSDHIIDKSEGKSAKLKMWHVIMLSSLLSMTFSYLALEYSLTGDVLAGFKSQQSLRNNERKLLYGNIDFVDKKSYDSSSDSLSQWAPSGKYYVDFDNHIAYPLKDDDLMGWRRYKTDLVILWYTTKARMKDGWHKRINKINGGRIKLHLFLKNSFKSAQESLRVLHKEQKRRWKRLFVLLHNKYRQFSPHIKRYFDHSCQKAKQCWSGSRLQLRKLRFKSMKPFRVFQFKVRKDTNWFVKQLKRFGLKLQHSRMYKAMSECRKKNYFKCKH [D52A;V53A;L54A;S55A;N56A;T57A;S58A;S59A] | disrupting interaction strength
